Data from patent publication US20140348834A1 (published 2014).
Where two headings read alike, the source gives them in different places.

B1: IL17-B6-15 (antibody, V domains shown)
VH: EVQLVQSGAEVKKPGESLKISCKASGGSFSGYGTSWVRQAPGQGLEWMGGITHFFGAVDYAQKFQGRVTITADESTTTAYMELSGLTSDDTAVYYCARDPNEFWNGYYATHDFDYWGQGTTVTVSS
VL: EIVLTQSPDFQSVTPKEKVTITCRASQNIGAELHWYQQKPDQSPKLLIKYASHSISGVPSRFSGSGSGTDFTLTINGLEAEDAGTYYCHQTDRLPYSFGPGTKVDIK
notes: also called pJP245 B6.1 #15VH / pJP246 B6.1 #15Vk
B2: ML109-10F7 (antibody, V domains shown)
VH: QVQLQQSGAELVRPGTSVTLSCKASGYIFTDYEIHWVKQTPVHGLEWIGVNDPESGGTFYNQKFDGKAELTADKSSSTAYMELRSLTSEDSGVYYCTRYYRYESFYGMDYWGQGTSITVSS
VL: QIVLTQSPAIMSASPGEKVTMTCSASSSISYIYWFQQKPGTSPKRWIYATFELASGVPARFSGSGSGTSYSLTISSMEAEDAATYYCHQRSSYPWTFGGGSKLEIKR
notes: Hybridoma-derived murine mAb; also called 10F7.3D1
B3: ML109-6C6 (antibody, V domains shown)
VH: QVQLQQSGAELVRPGASVKLSCKASGYTFSDYEIHWVKQTPVHGLAWIGVIHPGNGGTAYNQKFKDKATLTADKSSSTAYMELSSLTSEDSAVYYCERFLTYEGYFDYWGQGTTLTVSS
VL: SIVMTQTPKFLLVSAGDRVTITCKASQSVNNDVAWYQHKPGQSPKLLINYASNRYTGVPDRFTGSGYGTDFTFTISTVQAEDLAIYFCQQDYGSPYTFGGGTKLEIKR
notes: Hybridoma-derived murine mAb; also called 6C6.3B4
B4: IL17-h10F7.11 (antibody, V domains shown)
VH: EVQLVQSGAEVKKPGSSVKVSCKASGYTFTDYEIHWVRQAPGQGLEWIGVNDPESGGTFYNQKFDGRATLTADKSTSTAYMELSSLRSEDTAVYYCTRYYRYESFYGMDYWGQGTTVTVSS
VL: EIVLTQSPDFQSVTPKEKVTITCSASSSISYIYWFQQKPDQSPKRWIYATFELASGVPSRFSGSGSGTDYTLTINSLEAEDAATYYCHQRSSYPWTFGQGTKLEIKR
notes: IgG; constant regions not specified; also called h10F7.11 (VH.1a-Vk.2a)

Key:
human IL-17A [1] = biological target: T1, human IL-17A (human, UniProt Q16552 24-155); assay: cell-based or functional assay
T1 sequence (Q16552 24-155 limits assumed): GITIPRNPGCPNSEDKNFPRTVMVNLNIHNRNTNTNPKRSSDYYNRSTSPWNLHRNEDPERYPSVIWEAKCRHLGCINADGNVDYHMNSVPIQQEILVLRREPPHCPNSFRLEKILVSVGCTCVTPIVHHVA

human IL-17A/F [2] = biological target: human IL-17A/F (human, UniProt Q16552 24-155; Q96PD4 31-163); assay: cell-based or functional assay
Target sequence in this assay (Q16552 24-155 limits assumed, chain 1 of 2): as the sequence (Q16552 24-155 limits assumed) above
Target sequence in this assay (Q96PD4 31-163 limits assumed, chain 2 of 2): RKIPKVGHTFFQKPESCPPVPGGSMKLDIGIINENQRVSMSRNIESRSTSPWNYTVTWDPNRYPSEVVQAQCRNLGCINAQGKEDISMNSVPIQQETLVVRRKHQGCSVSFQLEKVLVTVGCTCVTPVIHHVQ

[3] = biological target: cynomolgous monkey (cyno) IL-17A (cynomolgus monkey, UniProt A0A2K5TTB0 24-155); assay: cell-based or functional assay
cynomolgous monkey (cyno) IL-17A, sequence (A0A2K5TTB0 entry or part of it): as the sequence (Q16552 24-155 limits assumed) above, with T3A, P8S, N34S, I77V, N78K, P104R counted along it

rat IL-17A [4] = biological target: T2, rat IL-17A (rat, UniProt Q61453 18-150, limits assumed); assay: cell-based or functional assay
T2 sequence (looked up): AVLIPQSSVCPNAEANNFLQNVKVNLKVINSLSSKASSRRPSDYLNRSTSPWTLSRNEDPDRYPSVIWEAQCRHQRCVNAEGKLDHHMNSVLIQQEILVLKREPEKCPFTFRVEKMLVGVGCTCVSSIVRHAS

human IL-17A [5] = biological target: T1, human IL-17A; assay: ELISA, captured antibody, serially diluted biotin-IL-17 (Example 1.5.1)
human IL-17A [6] = biological target: T3, human IL-17A (human, UniProt Q16552 24-155); assay: cell-based or functional assay; remark: listed apart in the source
T3 sequence (Q16552 24-155): as the sequence (Q16552 24-155 limits assumed) above

human IL-17A [7] = biological target: T3, human IL-17A; assay: SPR (Biacore 3000), antibody captured by anti-Fc, antigen in solution
Protocol: (§1) The binding of antibodies to purified recombinant human, cyno, rat, mouse, rabbit IL-17 and human IL-17A/F were determined by surface plasmon resonance-based measurements with a Biacore® 3000 instrument (Biacore® AB, Uppsala, Sweden) using running HBS-EP (10 mM HEPES [pH 7.4], 150 mM NaCl, 3 mM EDTA, and 0.005% surfactant P20) at 25° C. […] Approximately 5000 RU of goat anti-mouse or anti-human IgG (Fcγ) fragment specific polyclonal antibody (Pierce Biotechnology Inc, Rockford, Ill.) diluted in 10 mM sodium acetate (pH 4.5) was directly immobilized across a CM5 research grade biosensor chip using a standard amine coupling kit according to manufacturer's instructions and procedures at 25 μg/ml. Unreacted moieties on the biosensor surface were blocked with ethanolamine. Modified carboxymethyl dextran surface in flowcell 2 and 4 was used as a reaction surface. Unmodified carboxymethyl dextran without goat anti-mouse or anti-human IgG in flow cell 1 and 3 was used as the reference surface. For kinetic analysis, rate equations derived from the 1:1 Langmuir binding model were fitted simultaneously to association and dissociation phases of all eight injections (using global fit analysis) with the use of Biaevaluation 4.0.1 software. Purified antibodies were diluted in HEPES-buffered saline for capture across goat anti-mouse or anti-human IgG specific reaction surfaces. Antibodies to be captured as a ligand (25 μg/ml) were injected over reaction matrices at a flow rate of 5 μl/min. The association and dissociation rate constants, kon (unit M-1s-1) and koff (unit s-1) were determined under a continuous flow rate of 25 μl/min. Rate constants were derived by making kinetic binding measurements at ten different antigen concentrations ranging from 10 nM to 200 nM. The equilibrium dissociation constant (unit M) of the reaction between antibodies and recombinant purified IL-17 antigens was then calculated from the kinetic rate constants by the following formula: KD=koff/kon. Binding was recorded as a function of time and kinetic rate constants are calculated. In this assay, on-rates as fast as 10⁶ M⁻¹ s⁻¹ and off-rates as slow as 10⁻⁶ s⁻¹ can be measured.

human IL-17A/F [8] = biological target: T4, human IL-17A/F (human, UniProt Q16552 24-155; Q96PD4 31-163); assay: as above
T4 construct: Recombinant; biotinylated in the ELISA; also called hIL-17A/F; HuIL-17A/F
T4 sequence (Q16552 24-155, chain 1 of 2): as the sequence (Q16552 24-155 limits assumed) above
T4 sequence (Q96PD4 31-163, chain 2 of 2): as the sequence (Q96PD4 31-163 limits assumed, chain 2 of 2) above
Protocol: as §1

cynomolgus monkey IL-17A [9] = biological target: T5, cynomolgus monkey IL-17A (cynomolgus monkey, UniProt A0A2K5TTB0 24-155); assay: as above
T5 construct: biotinylated in the ELISA; also called cyno IL-17; Cyno IL-17A
T5 sequence (A0A2K5TTB0 entry or part of it): as the sequence (Q16552 24-155 limits assumed) above, with T3A, P8S, N34S, I77V, N78K, P104R counted along it
Protocol: as §1

rat IL-17A [10] = biological target: T6, rat IL-17A (rat, UniProt Q61453 18-150, limits assumed); assay: as above
T6 construct: Purified recombinant protein in SPR
T6 sequence (looked up): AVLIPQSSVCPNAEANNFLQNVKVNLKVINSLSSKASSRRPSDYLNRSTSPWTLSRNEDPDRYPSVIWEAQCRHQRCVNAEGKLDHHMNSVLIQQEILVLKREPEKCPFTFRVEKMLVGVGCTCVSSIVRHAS
Protocol: as §1

mouse IL-17A [11] = biological target: T7, mouse IL-17A (mouse, UniProt Q62386 26-158, limits assumed); assay: as above
T7 construct: Purified recombinant protein in SPR; also called MuIL-17A; murine IL-17A
T7 sequence (looked up): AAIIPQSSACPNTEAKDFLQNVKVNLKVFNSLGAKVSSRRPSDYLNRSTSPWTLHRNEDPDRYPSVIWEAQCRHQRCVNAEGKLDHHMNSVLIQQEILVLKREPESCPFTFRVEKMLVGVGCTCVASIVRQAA
Protocol: as §1

human IL-17A [12] = biological target: T3, human IL-17A; assay: hIL17A ELISA
Protocol: The following protocol is used to characterize the binding of IL-17 antibodies to human IL-17 by enzyme-linked immunosorbent assay (ELISA). […] Coat ELISA plate with 50 μl per well of Goat anti Mouse IgG-Fc at 2 ug/ml, overnight at 4° C. […] Wash plate 3×PBS/Tween. […] Add 50 μl Mab diluted to 1 μg/ml in PBS/0.1% BSA to appropriate wells. Incubate 1 hr at room temperature (RT). […] Wash plate 3× with PBS/Tween. […] Add 50 μl of serial diluted biotin-IL17 (human IL-17, IL-17A/F, cyno IL-17) to appropriate wells. Incubate 1 hr at room temperature (RT). […] Wash plate 3× with PBS/Tween. […] Incubate 1 hr at RT. […] Wash plate 3× with PBS/Tween. […] Stop reaction with 50 μl 2N H₂SO₄. […] Read absorbance at 450 nm.

human IL-17A [13] = biological target: T3, human IL-17A; assay: cell-based or functional assay; remark: listed apart in the source
cynomolgus monkey IL-17A [14] = biological target: T5, cynomolgus monkey IL-17A; assay: cell-based or functional assay
human IL-17A [15] = biological target: T3, human IL-17A; assay: SPR (Biacore 3000), antibody captured by anti-Fc, antigen in solution; remark: listed apart in the source
human IL-17A/F [16] = biological target: T4, human IL-17A/F; assay: as above; remark: listed apart in the source
cynomolgus monkey IL-17A [17] = biological target: T5, cynomolgus monkey IL-17A; assay: as above; remark: listed apart in the source
rat IL-17A [18] = biological target: T6, rat IL-17A; assay: as above; remark: listed apart in the source
mouse IL-17A [19] = biological target: T7, mouse IL-17A; assay: as above; remark: listed apart in the source

| Binder | Potency (pM), IL-17-driven IL-6 production in HS27 cells (human IL-17A [6]) | Kd (human IL-17A [7]) | koff (human IL-17A [7]) | kon (human IL-17A [7]) | Kd (human IL-17A/F [8]) | koff (human IL-17A/F [8]) | kon (human IL-17A/F [8]) | Kd (cynomolgus monkey IL-17A [9]) | koff (cynomolgus monkey IL-17A [9]) | kon (cynomolgus monkey IL-17A [9]) | Kd (rat IL-17A [10]) | koff (rat IL-17A [10]) | kon (rat IL-17A [10]) | Kd (mouse IL-17A [11]) | koff (mouse IL-17A [11]) | kon (mouse IL-17A [11]) | other results |
| --- | --- | --- | --- | --- | --- | --- | --- | --- | --- | --- | --- | --- | --- | --- | --- | --- | --- |
| B1 | – | – | – | – | – | – | – | – | – | – | – | – | – | – | – | – | Potency (pM), IL-17-driven IL-6 production in HS27 cells (human IL-17A [1]): 24 pM; Potency (pM), IL-17-driven IL-6 production in HS27 cells (human IL-17A/F [2]): 162 pM; Potency (pM), IL-17-driven IL-6 production in HS27 cells [3]: 10 pM; Potency (pM), IL-17 and TNF-induced IL-6 secretion from NIH3T3 cells (rat IL-17A [4]): 17 pM; EC50 (human IL-17A [5]): 0.13 nM |
| B2 | 54 pM | 0.0626 nM | 0.000159 s⁻¹ | 2.54e+06 M⁻¹ s⁻¹ | 0.673 nM | 0.000686 s⁻¹ | 1.02e+06 M⁻¹ s⁻¹ | 0.0684 nM | 0.000145 s⁻¹ | 2.12e+06 M⁻¹ s⁻¹ | 0.197 nM | 0.000623 s⁻¹ | 3.17e+06 M⁻¹ s⁻¹ | 0.221 nM | 0.000354 s⁻¹ | 1.6e+06 M⁻¹ s⁻¹ | – |
| B3 | 36 pM | 0.0187 nM | 6.78e-05 s⁻¹ | 3.63e+06 M⁻¹ s⁻¹ | 0.189 nM | 0.000366 s⁻¹ | 1.94e+06 M⁻¹ s⁻¹ | 0.0425 nM | 0.000116 s⁻¹ | 2.73e+06 M⁻¹ s⁻¹ | 0.142 nM | 0.000704 s⁻¹ | 4.95e+06 M⁻¹ s⁻¹ | 0.357 nM | 0.00087 s⁻¹ | 2.44e+06 M⁻¹ s⁻¹ | – |
| B4 | – | – | – | – | – | – | – | – | – | – | – | – | – | – | – | – | EC50 (human IL-17A [12]): 0.1 nM; Potency (pM), IL-17-driven IL-6 production in HS27 cells (human IL-17A [13]): 326 pM; Potency (pM), IL-17-driven IL-6 production in HS27 cells (cynomolgus monkey IL-17A [14]): 622 pM; Kd (human IL-17A [15]): 0.524 nM; koff (human IL-17A [15]): 0.000142 s⁻¹; kon (human IL-17A [15]): 271000 M⁻¹ s⁻¹; Kd (human IL-17A/F [16]): 2.11 nM; koff (human IL-17A/F [16]): 0.00086 s⁻¹; kon (human IL-17A/F [16]): 408000 M⁻¹ s⁻¹; Kd (cynomolgus monkey IL-17A [17]): 0.773 nM; koff (cynomolgus monkey IL-17A [17]): 0.000351 s⁻¹; kon (cynomolgus monkey IL-17A [17]): 454000 M⁻¹ s⁻¹; Kd (rat IL-17A [18]): 3.77 nM; koff (rat IL-17A [18]): 0.000667 s⁻¹; kon (rat IL-17A [18]): 177000 M⁻¹ s⁻¹; Kd (mouse IL-17A [19]): 2.21 nM; koff (mouse IL-17A [19]): 0.000522 s⁻¹; kon (mouse IL-17A [19]): 236000 M⁻¹ s⁻¹ |
